# Laboratory results published in patent US20210347873A1 (SHANGHAI PHARMAEXPLORER, published 2021).
# B1: 97A3C2H4 (antibody, V domains shown)
# VH: EVKLVESGGGLVQPGGSLKLSCAASGFTFSTYTMSWVRQTPEKRLEWVAYISYGGGSTSYPDTVKGRFTISRDNAKNTLYLQMSSLKSEDTAIYYCTRHVTVVENSMDYWGQGTSVTVSS
# VL: DILLTQSPDILSVSPGERVSFSCRASQSIGTSIHWYQQRTNGSPRLLIKYVSESFSGTPSRFSGSGSGTAFTLTINSVESEDIADYYCQQTHSWPWTFGGGTKLEIK
# notes: Mouse hybridoma monoclonal antibody purified on Protein G
# B2: 8E7D9C7F5 (antibody, V domains shown)
# VH: QVQLQQSGVELARPGASVKLSCKASGYTFTSYGISWVKQRTGQALEWIGEIYPRSGNTYYNEKFKGKATLTADKSSSTAYMELRSLTSEDSAVYFCARSGPITTLVATDYGMDYWGQGTSVTVSS
# VL: DIVLTQSPASLAVSLGQRATISCRASKSVSTSSYSYMHWYQQKPGQPPKLLIKFASNLESGVPARFSGSGSGTDFTLNIHPVEEEDAATYYCQHSREFPYTFGGGTKLEIK
# notes: as for B1
# B3: 111D10D6G3 (antibody, V domains shown)
# VH: QVQLQQPGAELVKPGASVKMSCKASGYTFTRHWITWVKQRPGQGLEWIGDIFPGSGSINYNEKFKSEATLTVEKSSSTAYMQLSSLTSEDSAVYYCARGDVDVWGTGTTVTVSS
# VL: DIQMTQSPSSLSASLGERVSLTCRASQEIRGYLSWLQQKPNGTIKRLIYAASTLDSGVPKRFSATRSGSDFSLTISSLESEDFADYYCLQYASYPFTFGSGTKLEIK
# notes: as for B1
# B4: 97A3C2H4 (antibody, V domains shown)
# VH: B1 VH
# VL: B1 VL
# notes: Mouse hybridoma antibody purified on Protein G
# B5: L1D12 (antibody, human IgG1, V domains shown)
# VH: QVQLVQSGGGLVQPGGSLRLSCAASGFTVSSNYMSWVRQAPGKGLEWVSVIYSGGSTYYADSVKGRFTISRDNSKNTLYLQMNSLRAEDTAVYYCARGFHDILTGYGMDVWGQGTTVTVSS
# VL: SSELTQDPAVSVALGQTVRITCQGDSLRNYYAGWYQQKPGQAPVLVIYGKNNRPSGIPDRFSGSSSGNTASLTITGTQAEDEADYYCSSRDNSGTHLVEFGGGTKLTVL
# notes: also called LID12
# B6: L9G7 (antibody, human IgG1, V domains shown)
# VH: QIQLVQSGAEVKKPGASVKVSCKASGYTFTSYGISWVRQAPGQGLEWMGWISAYNGNTNYAQKLQGRVTMTTDTSTSTAYMELRSLRSDDTAVYYCARTYYDILTGYYYYGMDVWGQGTTVTVSS
# VL: EIVLTQSPGTLSLSPGERATLSCRTSQSVDTYLAWYQQKPGQAPRLLIYDASNRATGIPARFSGSGSGTDFTLTISSLEPEDFAVYYCQQRSNWPLTFGGGTKVEIK
# B7: 111D10D6G3 (antibody, V domains shown)
# VH: B3 VH
# VL: B3 VL
# notes: as for B4
# Molecular target: T1, biotinylated hBLyS-ECD (human, UniProt Q9Y275 134-285, biotinylated with Biotin-X-X-NHS (molar ratio 7:1); sites not stated)
# T1 construct: also called biotinylated immunogen; BLyS protein
# Test: blocking ELISA: biotinylated hBLyS-ECD on coated BAFF R, antibody 4 nM
# Procedure: (§1) BAFF R (purchased from R & D Systems) was aliquoted into 96-well ELISA plate at 50 ng per well, and the plate was sealed with plastic film and incubated overnight at 4° C. On the next day the plate was washed four times with the plate washing buffer [PBS buffer containing 0.05% (v/v) Tween20] and added with blocking solution [PBS buffer containing 0.05% (v/v) Tween20 and 1% (w/w) BSA], then blocked for 1 hour at room temperature. The blocking solution was removed and 50 μL per well of the lead antibodies prepared in Embodiment 1 and 2 were added followed by the addition of 50 μL per well of the biotinylated hBLyS-ECD prepared in Embodiment 2. After incubation for 1 hour at 37° C., the plate was washed four times with the plate washing buffer [PBS buffer containing 0.05% (v/v) Tween20]. 100 μL per well of HRP-labeled (horseradish peroxidase) avidin (purchased from Sigma) was added and incubated at 37° C. for 1 hour. The plate was then washed four times with the plate washing buffer [PBS buffer containing 0.05% (v/v) Tween20]. 100 μL of TMB substrate was aliquoted into each well and after incubation for 5 minutes at room temperature, then 100 μL of stop solution (1.0 N HCl) was aliquoted into each well. A₄₅₀ₙₘ values were read with an ELISA plate reader (SpectraMax 384plus, Molecular Device) and the results were shown in FIGS. 9A-9B and Table 15. It was shown in Table 15 that the binding of BLyS protein to its receptor BAFF R could be blocked by the BLyS antibody.
row,OD450 nm,Binder
1,0.208 OD450 nm,B1
2,0.173 OD450 nm,B2
3,0.67 OD450 nm,B3

# Molecular target: T1, biotinylated hBLyS-ECD
# Test: blocking ELISA: biotinylated hBLyS-ECD on coated BAFF R, antibody 0.16 nM
# Procedure: as §1
row,OD450 nm,Binder
1,0.816 OD450 nm,B1
2,0.61 OD450 nm,B2
3,0.911 OD450 nm,B3

# Molecular target: T1, biotinylated hBLyS-ECD
# Test: blocking ELISA: biotinylated hBLyS-ECD on coated BAFF R, antibody 0.032 nM
# Procedure: as §1
row,OD450 nm,Binder
1,1.12 OD450 nm,B1
2,1.05 OD450 nm,B2
3,1.14 OD450 nm,B3

# Molecular target: T2, biotinylated hBLyS-ECD (human, UniProt Q9Y275 134-285, biotinylated with Biotin-X-X-NHS (molar ratio 7:1), sites not stated)
# T2 construct: The hBLyS-ECD of Embodiment 1 after biotinylation (Embodiment 2); also called biotinylated immunogen; BLyS protein; not shown: His tag of the pCPC vector
# Test: ELISA, biotinylated hBLyS-ECD captured on streptavidin; antibody 0 nM (blank)
# Procedure: Streptavidin was first diluted to a final concentration of 1.0 μg/mL with PBS, and then 50 μL of diluted streptavidin per well was aliquoted into 96-well ELISA plate, which was subsequently sealed with plastic film and incubated at 4° C. overnight. On the next day the plate was washed four times with the plate washing buffer [PBS buffer containing 0.05% (v/v) Tween20] and added with the blocking solution [PBS buffer containing 0.05% (v/v) Tween20 and 1% (w/w) BSA] and blocked for 2 hours at 37° C. The blocking solution was removed, the biotinylated hBLyS-ECD prepared in Embodiment 2 was diluted with PBS to a final concentration of 50 ng/mL and then aliquoted into the 96-well ELISA plate at 50 μL per well and incubated for 1 hour at 37° C. After rinsing the plate four times with the plate washing buffer [PBS buffer containing 0.05% (v/v) Tween20], 100 μl of the purified lead antibody harvested in Embodiment 1 and 2 was pipetted into each well. After incubation for 1 hour at 37° C., the plate was rinsed four times with the plate washing buffer [PBS buffer containing 0.05% (v/v) Tween20]. HRP-labeled (horseradish peroxidase) secondary antibody (purchased from Sigma) was added in and incubated at 37° C. for 1 hour. The plate was then rinsed four times with the plate washing buffer [PBS buffer containing 0.05% (v/v) Tween20]. 100 μL of TMB substrate was aliquoted into each well and after incubation for 5 minutes at room temperature, 100 μL of stop solution (1.0 N HCl) was aliquoted into each well. A₄₅₀ₙₘ values were read via an ELISA plate reader (SpectraMax M5e purchased from Molecular Devices) and the results were shown in FIGS. 5A-5B and Table 10.
row,OD450 nm,Binder
1,0.0603,B4
2,0.11,B5
3,0.071,B6
4,0.0617,B7

# Molecular target: T3, human BLyS (full length, arginine 132 mutated to histidine) on CHO-K1 cells (human, UniProt Q9Y275 1-285)
# T3 construct: also called hBLyS; CHO-K1 hBLyS
# T3 sequence (Q9Y275 other isoform, or with tags, fused parts or gaps limits assumed, change not shown): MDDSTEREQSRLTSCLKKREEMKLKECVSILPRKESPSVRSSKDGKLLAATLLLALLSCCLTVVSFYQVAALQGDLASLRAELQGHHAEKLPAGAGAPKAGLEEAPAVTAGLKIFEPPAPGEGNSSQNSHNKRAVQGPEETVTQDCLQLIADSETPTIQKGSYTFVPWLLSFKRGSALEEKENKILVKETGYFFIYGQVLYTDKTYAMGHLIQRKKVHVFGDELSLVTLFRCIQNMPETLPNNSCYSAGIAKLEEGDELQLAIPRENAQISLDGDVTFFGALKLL
# Test: flow cytometry (FACS) on CHO-K1 hBLyS cells, Alexa 488 secondary antibody
row,EC50 (read off the curve),Binder
1,~300 pM,B4
2,~200 pM,B5
3,~300 pM,B6
4,~100 pM,B7
